Data: PMC6508567 (2018)

B1: serpin Z4 (natural protein)
chain: MATTLATDVRLSIAHQTRFALRLRSAISSNPERAAGNVAFSPLSLHVALSLITAGAAATRDQLVAILGDGGAGDAKELNALAEQVVQFVLANESSTGGPRIAFANGIFVDASLSLKPSFEELAVCQYKAKTQSVDFQHKTLEAVGQVNSWVEQVTTGLIKQILPPGSVDNTTKLILGNALYFKGAWDQKFDESNTKCDSFHLLDGSSIQTQFMSSTKKQYISSSDNLKVLKLPYAKGHDKRQFSMYILLPGAQDGLWSLAKRLSTEPEFIENHIPKQTVEVGRFQLPKFKISYQFEASSLLRALGLQLPFSEEADLSEMVDSSQGLEISHVFHKSFVEVNEEGTEAGAATVAMGVAMSMPLKVDLVDFVANHPFLFLIREDIAGVVVFVGHVTNPLISA
B2: β-amylase WT (enzyme)
chain: MEVNVKGNYVQVYVMLPLDAVSVNNRFEKGDELRAQLRKLVEAGVDGVMVDVWWGLVEGKGPKAYDWSAYKQLFELVQKAGLKLQAIMSFHQCGGNVGDAVNIPIPQWVRDVGTCDPDIFYTDGHGTRNIEYLTLGVDNQPLFHGRSAVQMYADYMTSFRENMKEFLDAGVIVDIEVGLGPAGEMRYPSYPQSHGWSFPGIGEFICYDKYLQADFKAAAAAVGHPEWEFPNDVGQYNDTPERTQFFRDNGTYLSEKGRFFLAWYSNNLIKHGDRILDEANKVFLGYKVQLAIKISGIHWWYKVPSHAAELTAGYYNLHDRDGYRTIARMLKRHRASINFTCAEMRDSEQSSQAMSAPEELVQQVLSAGWREGLNVACENALPRYDPTAYNTILRNARPHGINQSGPPEHKLFGFTYLRLSNQLVEGQNYANFKTFVDRMHANLPRDPYVDPMAPLPRSGPEISIEMILQAAQPKLQPFPFQEHTDLPVGPTGGMGGQAEGPTCGMGGQVKGPTGGMGGQAEDPTSGIGGELPATM

Key:
β-amylase WT [1] = biological target: B2; assay: SPR; β-amylase immobilised
β-amylase WT [2] = biological target: B2; assay: MST; β-amylase labelled, serpin Z4 titrated
serpin Z4 = biological target: B1; assay: SPR; serpin Z4 immobilised

koff (β-amylase WT [1]) [s⁻¹]	Kd (β-amylase WT [2]) [nM]	koff (serpin Z4) [s⁻¹]	Binder
0.00263	215	–	B1
–	–	0.00243	B2
